# Data reported in the Human Domainome abundance scans (Beltran et al. 2025).
# ± gives the uncertainty stated by the source.
# B1: Histone H1t, residues 44 to 112; numbered along this chain, P22492 (parent)
# chain: VSKLITEALSVSQERVGMSLVALKKALAAAGYDVEKNNSRIKLSLKSLVNKGILVQTRGTGASGSFKLS
# Variants of: B1
# Experiment: abundance fitness (aPCA) (normalised: wild type 0, dead -1); higher = more abundant; growth selection in yeast, the domain comes from the species named
# Details: Homo sapiens
row,Variant,abundance fitness
1,VSKLITEASSVSQERVGMSLVALKKALAAAGYDVEKNNSRIKLSLKSLVNKGILVQTRGTGASGSFKLS,-0.66 ± 0.1
2,VSKLITEAVSVSQERVGMSLVALKKALAAAGYDVEKNNSRIKLSLKSLVNKGILVQTRGTGASGSFKLS,-0.301 ± 0.36
3,VSKLITEANSVSQERVGMSLVALKKALAAAGYDVEKNNSRIKLSLKSLVNKGILVQTRGTGASGSFKLS,-0.826 ± 0.062
4,VSKLITEAHSVSQERVGMSLVALKKALAAAGYDVEKNNSRIKLSLKSLVNKGILVQTRGTGASGSFKLS,-0.915 ± 0.47
5,VSKLITEAFSVSQERVGMSLVALKKALAAAGYDVEKNNSRIKLSLKSLVNKGILVQTRGTGASGSFKLS,-0.061 ± 0.027
6,VSKLITEAMSVSQERVGMSLVALKKALAAAGYDVEKNNSRIKLSLKSLVNKGILVQTRGTGASGSFKLS,-0.145 ± 0.043
7,VSKLITEATSVSQERVGMSLVALKKALAAAGYDVEKNNSRIKLSLKSLVNKGILVQTRGTGASGSFKLS,0.03 ± 0.13
8,VSKLITEAKSVSQERVGMSLVALKKALAAAGYDVEKNNSRIKLSLKSLVNKGILVQTRGTGASGSFKLS,-0.194 ± 0.051
9,VSKLITEAYSVSQERVGMSLVALKKALAAAGYDVEKNNSRIKLSLKSLVNKGILVQTRGTGASGSFKLS,-0.1 ± 0.039
10,VSKLITEAISVSQERVGMSLVALKKALAAAGYDVEKNNSRIKLSLKSLVNKGILVQTRGTGASGSFKLS,0.045 ± 0.039
11,VSKLITEAQSVSQERVGMSLVALKKALAAAGYDVEKNNSRIKLSLKSLVNKGILVQTRGTGASGSFKLS,-0.697 ± 0.23
12,VSKLITEACSVSQERVGMSLVALKKALAAAGYDVEKNNSRIKLSLKSLVNKGILVQTRGTGASGSFKLS,-0.401 ± 0.41
13,VSKLILEALSVSQERVGMSLVALKKALAAAGYDVEKNNSRIKLSLKSLVNKGILVQTRGTGASGSFKLS,-0.222 ± 0.056
14,VSKLIDEALSVSQERVGMSLVALKKALAAAGYDVEKNNSRIKLSLKSLVNKGILVQTRGTGASGSFKLS,-0.299 ± 0.21
15,VSKLISEALSVSQERVGMSLVALKKALAAAGYDVEKNNSRIKLSLKSLVNKGILVQTRGTGASGSFKLS,-0.168 ± 0.082
16,VSKLIPEALSVSQERVGMSLVALKKALAAAGYDVEKNNSRIKLSLKSLVNKGILVQTRGTGASGSFKLS,-1.24 ± 0.14
17,VSKLIHEALSVSQERVGMSLVALKKALAAAGYDVEKNNSRIKLSLKSLVNKGILVQTRGTGASGSFKLS,-0.05 ± 0.25
18,VSKLINEALSVSQERVGMSLVALKKALAAAGYDVEKNNSRIKLSLKSLVNKGILVQTRGTGASGSFKLS,-0.031 ± 0.097
19,VSKLIEEALSVSQERVGMSLVALKKALAAAGYDVEKNNSRIKLSLKSLVNKGILVQTRGTGASGSFKLS,-0.112 ± 0.12
20,VSKLIYEALSVSQERVGMSLVALKKALAAAGYDVEKNNSRIKLSLKSLVNKGILVQTRGTGASGSFKLS,-0.298 ± 0.19

row,Variant,abundance fitness
1,VSKLIIEALSVSQERVGMSLVALKKALAAAGYDVEKNNSRIKLSLKSLVNKGILVQTRGTGASGSFKLS,-0.071 ± 0.098
2,VSKLIGEALSVSQERVGMSLVALKKALAAAGYDVEKNNSRIKLSLKSLVNKGILVQTRGTGASGSFKLS,-0.629 ± 0.15
3,VSKLIVEALSVSQERVGMSLVALKKALAAAGYDVEKNNSRIKLSLKSLVNKGILVQTRGTGASGSFKLS,-0.153 ± 0.082
4,VSKLIKEALSVSQERVGMSLVALKKALAAAGYDVEKNNSRIKLSLKSLVNKGILVQTRGTGASGSFKLS,0.092 ± 0.066
5,VSKLIMEALSVSQERVGMSLVALKKALAAAGYDVEKNNSRIKLSLKSLVNKGILVQTRGTGASGSFKLS,-0.098 ± 0.061
6,VSKLIQEALSVSQERVGMSLVALKKALAAAGYDVEKNNSRIKLSLKSLVNKGILVQTRGTGASGSFKLS,-0.002 ± 0.15
7,VSKLIWEALSVSQERVGMSLVALKKALAAAGYDVEKNNSRIKLSLKSLVNKGILVQTRGTGASGSFKLS,-0.737 ± 0.15
8,VSKLIFEALSVSQERVGMSLVALKKALAAAGYDVEKNNSRIKLSLKSLVNKGILVQTRGTGASGSFKLS,-0.578 ± 0.14
9,VSKLIREALSVSQERVGMSLVALKKALAAAGYDVEKNNSRIKLSLKSLVNKGILVQTRGTGASGSFKLS,-0.04 ± 0.074
10,VSKLITQALSVSQERVGMSLVALKKALAAAGYDVEKNNSRIKLSLKSLVNKGILVQTRGTGASGSFKLS,-0.429 ± 0.15
11,VSKLITWALSVSQERVGMSLVALKKALAAAGYDVEKNNSRIKLSLKSLVNKGILVQTRGTGASGSFKLS,-0.275 ± 0.21
12,VSKLITDALSVSQERVGMSLVALKKALAAAGYDVEKNNSRIKLSLKSLVNKGILVQTRGTGASGSFKLS,-0.101 ± 0.073
13,VSKLITIALSVSQERVGMSLVALKKALAAAGYDVEKNNSRIKLSLKSLVNKGILVQTRGTGASGSFKLS,-0.739 ± 0.047
14,VSKLITGALSVSQERVGMSLVALKKALAAAGYDVEKNNSRIKLSLKSLVNKGILVQTRGTGASGSFKLS,-1.05 ± 0.21
15,VSKLITKALSVSQERVGMSLVALKKALAAAGYDVEKNNSRIKLSLKSLVNKGILVQTRGTGASGSFKLS,-0.12 ± 0.05
16,VSKLITLALSVSQERVGMSLVALKKALAAAGYDVEKNNSRIKLSLKSLVNKGILVQTRGTGASGSFKLS,-0.89 ± 0.044
17,VSKLITRALSVSQERVGMSLVALKKALAAAGYDVEKNNSRIKLSLKSLVNKGILVQTRGTGASGSFKLS,0.032 ± 0.16
18,VSKLITVALSVSQERVGMSLVALKKALAAAGYDVEKNNSRIKLSLKSLVNKGILVQTRGTGASGSFKLS,-0.826 ± 0.088
19,VSKLITFALSVSQERVGMSLVALKKALAAAGYDVEKNNSRIKLSLKSLVNKGILVQTRGTGASGSFKLS,-0.808 ± 0.038
